Data from patent publication US20210070881A1 (DENALI THERAPEUTICS, published 2021).
One block for each binder: values may come before it.

Assays:
[1] = biological target: T1, recombinant BACE1 (BACE1 extracellular domain, R&D Systems Cat#931-AS) (UniProt P56817 22-457); assay: SPR Biacore
T1 construct: extracellular domain; also called BACE1 extracellular domain protein

[2] = biological target: cellular BACE1 in CHOK1-huAPP cells; assay: cell-based or functional assay
[3] = biological target: T1, recombinant BACE1 (BACE1 extracellular …); assay: SPR Biacore 8K, antibody captured, BACE1 analyte
Method: (§1) The binding affinities of the affinity matured humanized 2H8 variants for BACE1 were determined by surface plasmon resonance using a Biacore™ 8K instrument. […] The binding was monitored for 300 seconds and then dissociation was monitored for 600+ seconds in HBS-EP+ running buffer (GE Healthcare Life Sciences, BR100669). Binding response was corrected by subtracting the RU from a blank flow cell. A 1:1 Langmuir model of simultaneous fitting of kₒₙ and koff was used for kinetics analysis.

[4] = biological target: T1, recombinant BACE1 (BACE1 extracellular …); assay: SPR Biacore 8K, antibody captured, BACE1 analyte; remark: listed apart in the source
Method: as §1

[5] = biological target: cellular BACE1 in CHOK1-huAPP cells; assay: cell-based or functional assay; remark: listed apart in the source
[6] = biological target: T1, recombinant BACE1 (BACE1 extracellular …); assay: SPR Biacore T200, IgG captured, BACE1 analyte
Method: The affinity of chimeric IgG antibodies for recombinant BACE1 was determined by surface plasmon resonance using a Biacore™ T200 instrument. Biacore™ Series S CMS sensor chips were immobilized with monoclonal mouse anti-human IgG (Fc) antibody (e.g., using a human antibody capture kit from GE Healthcare). 1 μg/mL of antibody was captured for 1 minute on each flow cell and serial 3-fold dilutions of recombinant BACE1 were injected at a flow rate of 30 μL/min. Each sample was analyzed with a 3-minute association and a 10-minute dissociation. After each injection, the chip was regenerated using 3M MgCl₂. Binding response was corrected by subtracting the RU from a flow cell capturing an irrelevant IgG at similar density. A 1:1 Langmuir model of simultaneous fitting of kₒₙ and koff was used for analysis of kinetics.

T1 sequence (P56817 22-457): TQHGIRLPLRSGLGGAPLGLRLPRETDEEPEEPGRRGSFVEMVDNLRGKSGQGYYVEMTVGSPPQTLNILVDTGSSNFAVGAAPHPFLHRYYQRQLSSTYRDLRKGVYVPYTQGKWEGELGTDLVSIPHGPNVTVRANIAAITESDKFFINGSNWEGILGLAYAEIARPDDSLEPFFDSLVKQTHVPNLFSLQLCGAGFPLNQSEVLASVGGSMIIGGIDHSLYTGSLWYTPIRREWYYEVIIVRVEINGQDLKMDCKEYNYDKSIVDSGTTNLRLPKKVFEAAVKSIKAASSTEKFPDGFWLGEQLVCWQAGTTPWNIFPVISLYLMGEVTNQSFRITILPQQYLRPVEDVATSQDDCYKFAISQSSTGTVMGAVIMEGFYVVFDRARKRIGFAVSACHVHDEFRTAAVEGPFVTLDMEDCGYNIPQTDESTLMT

- Kd [1]: 12 nM
- IC50 [2]: 14.8 nM
- Max. % inhibition [2]: 86%
- Kd [3]: 9.21 nM
- Kd [4]: 9.21 nM
B1: hu2H8v29 (antibody, V domains shown)
VH: QVQLVQSGAEVKKPGASVKVSCKASGYTFTNFWIHWVRQAPGQGLEWMGMIDPSDSYTKYNQKFKARATLTVDTSTSTVYMELSSLRSEDTAVYYCARSGVAFPYWGQGTLVTVSS
VL: DIQMTQSPSSLSASVGDRVTITCKASQDVGRNVAWYQQKPGKSPKSLIYSASHRYSGVPSRFSGSGSGTDFTLTISSLQPEDFATYFCQQYNSYPYTFGQGTKVEIK
notes: humanized; also called hu2H8_HC6 + hu2H8_LC5

- Kd [3]: 6.53 nM
B2: hu2H8v29.4 (antibody, V domains shown)
VH: QVQLVQSGAEVKKPGASVKVSCKASGYTFTNFWIHWVRQAPGQGLEWMGMIDPSDSYTKYNQKFKARATLTVDTSTSTVYMELSSLRSEDTAVYYCARSGVAFPYWGQGTLVTVSS
VL: DIQMTQSPSSLSASVGDRVTITCKASQDVGRNVAWYQQKPGKSPKSLIYSASHQYSGVPSRFSGSGSGTDFTLTISSLQPEDFATYFCQQYNSYPYTFGQGTKVEIK
notes: captured via human Fc; also called hu2H8_HC6 + hu2H8_LC5.4

- Kd [3]: 7.51 nM
B3: hu2H8v29.6 (antibody, V domains shown)
VH: QVQLVQSGAEVKKPGASVKVSCKASGYTFTNFWIHWVRQAPGQGLEWMGMIDPSDSYTKYNQKFKARATLTVDTSTSTVYMELSSLRSEDTAVYYCARSGVAFPYWGQGTLVTVSS
VL: DIQMTQSPSSLSASVGDRVTITCKASQDVGRNVAWYQQKPGKSPKSLIYSASHLYSGVPSRFSGSGSGTDFTLTISSLQPEDFATYFCQQYNSYPYTFGQGTKVEIK
notes: captured via human Fc; also called hu2H8_HC6 + hu2H8_LC5.6

- Kd [3]: 7.22 nM
B4: hu2H8v29.1 (antibody, V domains shown)
VH: QVQLVQSGAEVKKPGASVKVSCKASGYTFTNFWIHWVRQAPGQGLEWMGMIDPSDSYTKYNQKFKARATLTVDTSTSTVYMELSSLRSEDTAVYYCARSGVAFPYWGQGTLVTVSS
VL: DIQMTQSPSSLSASVGDRVTITCKASQDVGRNVAWYQQKPGKSPKSLIYSASHYYSGVPSRFSGSGSGTDFTLTISSLQPEDFATYFCQQYNSYPYTFGQGTKVEIK
notes: captured via human Fc; also called hu2H8_HC6 + hu2H8_LC5.1

- Kd [1]: 12.8 nM
- IC50 [2]: 16.5 nM
- Max. % inhibition [2]: 85%
B5: hu2H8v27 (antibody, V domains shown)
VH: QVQLVQSGAEVKKPGASVKVSCKASGYTFTNFWIHWLRQAPGQGLEWMGMIDPSDSYTKYNQKFKARVTMTVDTSTSTTYMELSSLRSEDTAVYYCARSGVAFPYWGQGTLVTVSS
VL: DIQMTQSPSSLSASVGDRVTITCKASQDVGRNVAWYQQKPGKSPKSLIYSASHRYSGVPSRFSGSGSGTDFTLTISSLQPEDFATYFCQQYNSYPYTFGQGTKVEIK
notes: humanized; also called hu2H8_HC3 + hu2H8_LC5

- Kd [3]: 4.84 nM
B6: hu2H8v29.10 (antibody, V domains shown)
VH: QVQLVQSGAEVKKPGASVKVSCKASGYTFTNFWIHWVRQAPGQGLEWMGMIDPSDSYTKYNQKFKARATLTVDTSTSTVYMELSSLRSEDTAVYYCARSGVAFPYWGQGTLVTVSS
VL: DIQMTQSPSSLSASVGDRVTITCKASQDVGRNVAWYQQKPGKSPKSLIYSASHRYSGVPSRFSGSGSGTDFTLTISSLQPEDFATYFCQQYYSYPYTFGQGTKVEIK
notes: captured via human Fc; also called hu2H8_HC6 + hu2H8_LC5.10

- Kd [1]: 12.1 nM
- IC50 [2]: 22.1 nM
- Max. % inhibition [2]: 91%
B7: hu2H8v17 (antibody, V domains shown)
VH: QVQLVQSGAEVKKPGASVKVSCKASGYTFTNFWIHWVRQAPGQGLEWMGMIDPSDSYTKYNQKFKARATLTVDTSTSTVYMELSSLRSEDTAVYYCARSGVAFPYWGQGTLVTVSS
VL: DIQMTQSPSSLSASVGDRVTITCKASQDVGRNVAWYQQKPGKAPKSLIYSASHRYSGVPSRFSGSGSGTDFTLTISSLQPEDFATYYCQQYNSYPYTFGQGTKVEIK
notes: humanized; also called hu2H8_HC6 + hu2H8_LC3

- Kd [3]: 4.83 nM
B8: hu2H8v29.11 (antibody, V domains shown)
VH: QVQLVQSGAEVKKPGASVKVSCKASGYTFTNFWIHWVRQAPGQGLEWMGMIDPSDSYTKYNQKFKARATLTVDTSTSTVYMELSSLRSEDTAVYYCARSGVAFPYWGQGTLVTVSS
VL: DIQMTQSPSSLSASVGDRVTITCKASQDVGRNVAWYQQKPGKSPKSLIYSASHRYSGVPSRFSGSGSGTDFTLTISSLQPEDFATYFCQQYYSYAYTFGQGTKVEIK
notes: captured via human Fc; also called hu2H8_HC6 + hu2H8_LC5.11

- Kd [3]: 11 nM
B9: hu2H8v29.9 (antibody, V domains shown)
VH: QVQLVQSGAEVKKPGASVKVSCKASGYTFTNFWIHWVRQAPGQGLEWMGMIDPSDSYTKYNQKFKARATLTVDTSTSTVYMELSSLRSEDTAVYYCARSGVAFPYWGQGTLVTVSS
VL: DIQMTQSPSSLSASVGDRVTITCKASQDVGRNVAWYQQKPGKSPKSLIYSASHRYSGVPSRFSGSGSGTDFTLTISSLQPEDFATYFCQQYNAYPYTFGQGTKVEIK
notes: captured via human Fc; also called hu2H8_HC6 + hu2H8_LC5.9

- Kd [3]: 8.16 nM
B10: hu2H8v29.2 (antibody, V domains shown)
VH: QVQLVQSGAEVKKPGASVKVSCKASGYTFTNFWIHWVRQAPGQGLEWMGMIDPSDSYTKYNQKFKARATLTVDTSTSTVYMELSSLRSEDTAVYYCARSGVAFPYWGQGTLVTVSS
VL: DIQMTQSPSSLSASVGDRVTITCKASQDVGRNVAWYQQKPGKSPKSLIYSASHNYSGVPSRFSGSGSGTDFTLTISSLQPEDFATYFCQQYNSYPYTFGQGTKVEIK
notes: captured via human Fc; also called hu2H8_HC6 + hu2H8_LC5.2

- Kd [3]: 6.93 nM
B11: hu2H8v29.3 (antibody, V domains shown)
VH: QVQLVQSGAEVKKPGASVKVSCKASGYTFTNFWIHWVRQAPGQGLEWMGMIDPSDSYTKYNQKFKARATLTVDTSTSTVYMELSSLRSEDTAVYYCARSGVAFPYWGQGTLVTVSS
VL: DIQMTQSPSSLSASVGDRVTITCKASQDVGRNVAWYQQKPGKSPKSLIYSASHMYSGVPSRFSGSGSGTDFTLTISSLQPEDFATYFCQQYNSYPYTFGQGTKVEIK
notes: captured via human Fc; also called hu2H8_HC6 + hu2H8_LC5.3

- Kd [3]: 4.99 nM
B12: hu2H8v29.7 (antibody, V domains shown)
VH: QVQLVQSGAEVKKPGASVKVSCKASGYTFTNFWIHWVRQAPGQGLEWMGMIDPSDSYTKYNQKFKARATLTVDTSTSTVYMELSSLRSEDTAVYYCARSGVAFPYWGQGTLVTVSS
VL: DIQMTQSPSSLSASVGDRVTITCKASQDVGRNVAWYQQKPGKSPKSLIYSASHRYSGVPSRFSGSGSGTDFTLTISSLQPEDFATYFCQQYSSYPYTFGQGTKVEIK
notes: captured via human Fc; also called hu2H8_HC6 + hu2H8_LC5.7

- Kd [3]: 8.1 nM
B13: hu2H8v29.8 (antibody, V domains shown)
VH: QVQLVQSGAEVKKPGASVKVSCKASGYTFTNFWIHWVRQAPGQGLEWMGMIDPSDSYTKYNQKFKARATLTVDTSTSTVYMELSSLRSEDTAVYYCARSGVAFPYWGQGTLVTVSS
VL: DIQMTQSPSSLSASVGDRVTITCKASQDVGRNVAWYQQKPGKSPKSLIYSASHRYSGVPSRFSGSGSGTDFTLTISSLQPEDFATYFCQQYQSYPYTFGQGTKVEIK
notes: captured via human Fc; also called hu2H8_HC6 + hu2H8_LC5.8

- Kd [3]: 8.21 nM
B14: hu2H8v29.5 (antibody, V domains shown)
VH: QVQLVQSGAEVKKPGASVKVSCKASGYTFTNFWIHWVRQAPGQGLEWMGMIDPSDSYTKYNQKFKARATLTVDTSTSTVYMELSSLRSEDTAVYYCARSGVAFPYWGQGTLVTVSS
VL: DIQMTQSPSSLSASVGDRVTITCKASQDVGRNVAWYQQKPGKSPKSLIYSASHKYSGVPSRFSGSGSGTDFTLTISSLQPEDFATYFCQQYNSYPYTFGQGTKVEIK
notes: captured via human Fc; also called hu2H8_HC6 + hu2H8_LC5.5

- % Max Inhibition [5]: 63%
- Cellular IC50 [5]: 11 nM
- Kd [6]: 5 nM
- koff [6]: 0.00024 s⁻¹
- kon [6]: 49000 M⁻¹ s⁻¹
B15: 1F1 (antibody, human IgG1, V domains shown)
VH: EVQLQQSGAELMKPGASVKLSCKATGYTFIGYWIDWVKQRPGHGLEWIGEILPGGGSTNHNEKFKGKATFTTDTSSNTVYMQLSSLTTEDSAIYYCAREGSYGNYYFDYWGQGTSVTVSS
VL: DIQMTQTPLSLPVSLGDQASISCRSSQSIVHSNGNTYLEWYLQKPGQSPKLLIYKVSNRFSGVPDRFSGSGSGTDFTLKISRVEAEDLGVYYCFQGSHVPYTFGGGTKLEIK
notes: chimeric, human IgG1/kappa; also called Clone 1F1

- % Max Inhibition [5]: 46%
- Cellular IC50 [5]: 18 nM
- Kd [6]: 23 nM
- koff [6]: 0.0022 s⁻¹
- kon [6]: 96000 M⁻¹ s⁻¹
B16: 4H10 (antibody, human IgG1, V domains shown)
VH: EIQLQQSGPELKKPGETVKISCKTSGYTFTTYGMTWVKQAPGKGLKWMGWINTYSGVPIYADDFKGRSAFSLETSASTAYLQINNLENEDTATYFCARRGSTAHYFDYWGQGTTVTVSS
VL: DIVLTQSHKFMSTSVGDRVSITCKASQDVSTAVAWYQQKPGQSPKLLIYWASTRHTGVPDRFTGSGSGTDYTLTISSVQAEDLALYYCQQHYSTPYTFGGGTKLELK
notes: chimeric, human IgG1/kappa; also called Clone 4H10

- % Max Inhibition [5]: 63%
- Cellular IC50 [5]: 34 nM
- Kd [6]: 71 nM
- koff [6]: 0.0013 s⁻¹
- kon [6]: 18000 M⁻¹ s⁻¹
B17: 2E1 (antibody, human IgG1, V domains shown)
VH: EVQLQQPGTELVRPGTSVKLSCKASGYTFTNFWMHWVKQRPGQGLEWIGVINPSDTYTKFNQKFRGKATLTVDTSSSTAYMQLSSLTSEDSAVYFCARPTVGLDYWGQGTSVTVSS
VL: DIVMTQSQKFMPTSVGDRVSVTCKASQNVGSNVAWYQQKSGQSPKALIYSASHRYSGVPDRFTGSGSGTDFTLTISNVQSEDLAEYFCQQYNSYPYTFGGGTKLEIK
notes: chimeric, human IgG1/kappa; also called Clone 2E1

- % Max Inhibition [5]: 55%
- Cellular IC50 [5]: 4 nM
- Kd [6]: 16 nM
- koff [6]: 0.00095 s⁻¹
- kon [6]: 59000 M⁻¹ s⁻¹
B18: 1D7 (antibody, human IgG1, V domains shown)
VH: EVKLMESGPGLVAPSQSLSISCTVSGFSLTSYGVDWVRQPPGKGLEWLGVVWGGGSTNYNSALMSRLSISKDNSKSQVFLKMNSLQTDDTAMYYCAKRDYFGGLNVWGTGTTVTVSS
VL: DIVMTQTTSPLSVSLGDRVTISCRASQDISKYLNWYQQRPDGTVKLLIYYTSRLHSGVPSRFSGSGSGTDYSLTISNLEQEDIATYFCHQGHKIPYTFGGGTKLELK
notes: chimeric, human IgG1/kappa; also called Clone 1D7
